Measured values: publication PMC3497731 (Bioscience Reports, 2012)
Values joined by “and” are separate entries in the source; they are usually repeats but may differ in a detail not shown here. Identical values can stand only once.

Assays:
[1] = target: adiponectin secreted from isolated rat primary adipocytes (rat (endogenous in primary adipocytes)); experiment: native gel or EMSA
SEC = target: the molecule itself; experiment: SEC
native gel or EMSA [2] = target: the molecule itself; experiment: native gel or EMSA
[3] = target: the molecule itself; experiment: non-reducing denaturing SDS/PAGE
native gel or EMSA [4] = target: the molecule itself; experiment: native gel or EMSA; remark: listed apart in the source

adiponectin secreted from isolated rat primary adipocytes (natural protein)
stoichiometry N [1]: 6 and 3

B1: adiponectin purified from bovine serum (natural protein, UniProt Q3Y5Z3 18-240, looked up)
chain: EDNMEDPPLPKGACAGWMAGIPGHPGHNGTPGRDGRDGTPGEKGEKGDPGLVGPKGDTGETGITGIEGPRGFPGTPGRKGEPGESAYVYRSAFSVGLERQVTVPNVPIRFTKIFYNQQNHYDGTTGKFLCNIPGLYYFSYHITVYLKDVKVSLYKNDKALLFTHDQFQDKNVDQASGSVLLYLEKGDQVWLQVYEGENHNGVYADNVNDSTFTGFLLYHNIVE
stoichiometry N (SEC): 6

B2: FLAG epitope-tagged mouse adiponectin (natural protein, UniProt Q60994 18-247, looked up)
chain: EDDVTTTEELAPALVPPPKGTCAGWMAGIPGHPGHNGTPGRDGRDGTPGEKGEKGDAGLLGPKGETGDVGMTGAEGPRGFPGTPGRKGEPGEAAYVYRSAFSVGLETRVTVPNVPIRFTKIFYNQQNHYDGSTGKFYCNIPGLYYFSYHITVYMKDVKVSLFKKDKAVLFTYDQYQEKNVDQASGSVLLHLEVGDQVWLQVYGDGDHNGLYADNVNDSTFTGFLLYHDTN
stoichiometry N (native gel or EMSA [2]): 6 and 3 | stoichiometry N [3]: 2

B3: adiponectin of differentiated 3T3-L1 adipocytes (natural protein, mouse (endogenous in 3T3-L1), UniProt Q60994 18-247, looked up)
chain: B2 chain
stoichiometry N (native gel or EMSA [4]): 6 and 3
